# Changes are numbered by the printed parent chain.
# T1: FcγRIIa R type extracellular domain with C-terminal His tag (human, UniProt P12318 34-217)
# T1 construct: extracellular domain; also called FcgRIIaR
# T1 sequence (looked up): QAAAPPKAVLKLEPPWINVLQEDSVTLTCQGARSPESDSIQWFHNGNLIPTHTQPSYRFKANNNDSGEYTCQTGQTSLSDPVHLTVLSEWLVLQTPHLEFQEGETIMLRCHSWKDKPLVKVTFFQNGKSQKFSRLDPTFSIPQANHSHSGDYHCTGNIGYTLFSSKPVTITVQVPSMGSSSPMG
# T2: FcγRIIa H type extracellular domain with C-terminal His tag (human, UniProt P12318 34-217)
# T2 construct: extracellular domain; also called FcgRIIaH; not shown: His tag at the C terminus
# T2 sequence (looked up): T1 sequence (looked up) with R134H
# T3: FcγRIIb extracellular domain with C-terminal His tag (human, UniProt P31994 43-217)
# T3 construct: extracellular domain; also called FcgRIIb; not shown: His tag at the C terminus
# T3 sequence (looked up): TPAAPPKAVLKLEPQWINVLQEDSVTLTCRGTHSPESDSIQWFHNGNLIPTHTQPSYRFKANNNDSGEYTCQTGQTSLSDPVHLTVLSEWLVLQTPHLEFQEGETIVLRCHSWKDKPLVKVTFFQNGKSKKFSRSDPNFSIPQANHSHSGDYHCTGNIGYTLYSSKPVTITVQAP
# T4: FcγRIIa R type extracellular domain with C-terminal His tag (human, UniProt P12318 34-217)
# T4 construct: extracellular domain; also called FcgRIIaR; not shown: His tag at the C terminus
# T4 sequence (looked up): T1 sequence (looked up)
# B1: IL6R-2B253/IL6R-L (antibody, human IgG1, kappa, name in EU numbering)
# heavy: QVQLQESGPGLVKPSETLSLTCAVSGHSISHDHAWSWVRQPPGEGLEWIGFISYSGITNYNPSLQGRVTISRDNSKNTLYLQMNSLRAEDTAVYYCARSLARTTAMDYWGEGTLVTVSSASTKGPSVFPLAPSSKSTSGGTAALGCLVKDYFPEPVTVSWNSGALTSGVHTFPAVLQSSGLYSLSSVVTVPSSSLGTQTYICNVNHKPSNTKVDKKVEPKSCDKTHTCPPCPAPDLLGGDSVFLFPPKPKDTLMISRTPEVTCVVVDVSHEDPEVKFNWYVDGVEVHNAKTKPREEQYNSTYRVVSVLTVLHQDWLNGKEYKCKMSNKALPAPIEKTISKAKGQPREPQVYTLPPSRDELTKNQVSLTCLVKGFYPSDIAVEWESNGQPENNYKTTPPVLDSDGSFFLYSKLTVDKSRWQQGNVFSCSVMHEALHNHYTQESLSLSP
# light: not shown
# notes: IgG1; alterations on IL6R-B3, EU numbering
# B2: IL6R-BP204/IL6R-L (antibody, human IgG1, kappa, name in EU numbering)
# heavy: B1 heavy with P273G, M325V, K328A, A332R
# light: not shown
# notes: as for B1
# B3: IL6R-BP208/IL6R-L (antibody, human IgG1, kappa, name in EU numbering)
# heavy: B1 heavy with G239D, H270D, P273G, M325V, A332R
# light: not shown
# notes: as for B1
# B4: IL6R-BP184/IL6R-L (antibody, human IgG1, kappa, name in EU numbering)
# heavy: B1 heavy with P273G, M325V, A332K
# light: not shown
# notes: as for B1
# B5: IL6R-BP186/IL6R-L (antibody, human IgG1, kappa, name in EU numbering)
# heavy: B1 heavy with L236Y, G239D, P273G, Y298D, M325V, K328A, A332K
# light: not shown
# notes: as for B1
# B6: IL6R-BP196/IL6R-L (antibody, human IgG1, kappa, name in EU numbering)
# heavy: B1 heavy with D235E, L236Y, H270D, P273G, M325V, K328A, A332K
# light: not shown
# notes: as for B1
# B7: IL6R-BP085/IL6R-L (antibody, human IgG1, kappa, name in EU numbering)
# heavy: B1 heavy with D235E, G239D, M325V, A332K
# light: not shown
# notes: as for B1
# B8: IL6R-BP223/IL6R-L (antibody, human IgG1, kappa, name in EU numbering)
# heavy: B1 heavy with D235E, L236Y, G239D, H270D, P273G, M325V, K328A, A332R
# light: not shown
# notes: as for B1
# B9: IL6R-BP183/IL6R-L (antibody, human IgG1, kappa, name in EU numbering)
# heavy: B1 heavy with L236Y, P273G, M325V, K328A, A332K
# light: not shown
# notes: as for B1
# B10: IL6R-BP188/IL6R-L (antibody, human IgG1, kappa, name in EU numbering)
# heavy: B1 heavy with G239D, H270D, P273G, M325V, A332K
# light: not shown
# notes: as for B1
# B11: IL6R-BP197/IL6R-L (antibody, human IgG1, kappa, name in EU numbering)
# heavy: B1 heavy with L236Y, G239D, H270D, P273G, Y298D, M325V, K328D, A332K
# light: not shown
# notes: as for B1
# B12: IL6R-BP132/IL6R-L (antibody, human IgG1, kappa, name in EU numbering)
# heavy: B1 heavy with M325V, K328A, A332K
# light: not shown
# notes: as for B1
# B13: IL6R-BP210/IL6R-L (antibody, human IgG1, kappa, name in EU numbering)
# heavy: B1 heavy with D235E, G239D, H270D, P273G, M325V, A332R
# light: not shown
# notes: as for B1
# B14: IL6R-BP211/IL6R-L (antibody, human IgG1, kappa, name in EU numbering)
# heavy: B1 heavy with H270D, P273G, M325V, K328A, A332R
# light: not shown
# notes: as for B1
# B15: IL6R-BP180/IL6R-L (antibody, human IgG1, kappa, name in EU numbering)
# heavy: B1 heavy with D235E, G239D, P273G, M325V, A332K
# light: not shown
# notes: as for B1
# B16: IL6R-BP182/IL6R-L (antibody, human IgG1, kappa, name in EU numbering)
# heavy: B1 heavy with P273G, Y298D, M325V, A332K
# light: not shown
# notes: as for B1
# B17: IL6R-BP220/IL6R-L (antibody, human IgG1, kappa, name in EU numbering)
# heavy: B1 heavy with G239D, H270D, P273G, Y298D, M325V, A332K
# light: not shown
# notes: as for B1
# B18: IL6R-BP202/IL6R-L (antibody, human IgG1, kappa, name in EU numbering)
# heavy: B1 heavy with D235E, G239D, P273G, M325V, K328A, A332R
# light: not shown
# notes: as for B1
# B19: IL6R-BP189/IL6R-L (antibody, human IgG1, kappa, name in EU numbering)
# heavy: B1 heavy with D235E, G239D, H270D, P273G, M325V, K328A, A332K
# light: not shown
# notes: as for B1
# B20: IL6R-BP536/IL6R-L (antibody, human IgG1, kappa, name in EU numbering)
# heavy: B1 heavy with G239D, V266I, H270E, P273G, Y298D, M325V, A329G, A332R, P398M
# light: not shown
# notes: human IgG1
# B21: IL6R-BP511/IL6R-L (antibody, human IgG1, kappa, name in EU numbering)
# heavy: B1 heavy with D235E, G239D, V266I, S269A, H270E, P273G, E274P, Y298D, M325V, A332R
# light: not shown
# notes: human IgG1
# B22: IL6R-BP539/IL6R-L (antibody, human IgG1, kappa, name in EU numbering)
# heavy: B1 heavy with D235E, G239D, V266I, S269G, H270E, P273G, E274P, Y298D, M325V, A332R
# light: not shown
# notes: human IgG1
# B23: IL6R-BP540/IL6R-L (antibody, human IgG1, kappa, name in EU numbering)
# heavy: B1 heavy with D235E, G239D, V266I, H270E, P273G, E274P, Y298D, M325V, A332R
# light: not shown
# notes: human IgG1
# B24: IL6R-BP563/IL6R-L (antibody, human IgG1, kappa, name in EU numbering)
# heavy: B1 heavy with G239D, H270E, P273G, E274D, Y298D, M325V, A332R
# light: not shown
# notes: human IgG1
# B25: IL6R-BP538/IL6R-L (antibody, human IgG1, kappa, name in EU numbering)
# heavy: B1 heavy with D235E, G239D, V266I, H270E, P273G, M325V, A332R
# light: not shown
# notes: human IgG1
# B26: IL6R-BP556/IL6R-L (antibody, human IgG1, kappa, name in EU numbering)
# heavy: B1 heavy with D235E, G239D, V266I, S269G, H270E, P273G, Y298D, M325V, A332R
# light: not shown
# notes: human IgG1
# B27: IL6R-BP551/IL6R-L (antibody, human IgG1, kappa, name in EU numbering)
# heavy: B1 heavy with D235E, G239D, V266I, H270E, P273G, E274D, Y298D, M325V, A332R
# light: not shown
# notes: human IgG1
# B28: IL6R-BP533/IL6R-L (antibody, human IgG1, kappa, name in EU numbering)
# heavy: B1 heavy with G239D, V266I, S269G, H270E, P273G, Y298D, M325V, A332R, P398L
# light: not shown
# notes: human IgG1
# B29: IL6R-BP550/IL6R-L (antibody, human IgG1, kappa, name in EU numbering)
# heavy: B1 heavy with D235E, G239D, V266I, S269G, H270E, P273G, E274D, Y298D, M325V, A332R
# light: not shown
# notes: human IgG1
# B30: IL6R-BP565/IL6R-L (antibody, human IgG1, kappa, name in EU numbering)
# heavy: B1 heavy with G239D, S269A, H270E, P273G, Y298D, M325V, A332R
# light: not shown
# notes: human IgG1
# Molecular target: T1, FcγRIIa R type extracellular domain …
# Assay: SPR (Biacore), FcgR as analyte
row,Binder,Kd [nM]
1,B1,5000
2,B2,4500
3,B3,850
4,B4,2300
5,B5,960
6,B6,3000
7,B7,4200
8,B8,600
9,B9,2600
10,B10,1000
11,B11,980
12,B12,8000
13,B13,1000
14,B14,4100

# Molecular target: T5, FcγRIa extracellular domain with C-terminal His tag (human, UniProt P12314 16-292)
# T5 construct: also called FcgRIa
# Assay: SPR (Biacore), FcgR as analyte
# T5 sequence (P12314 16-292): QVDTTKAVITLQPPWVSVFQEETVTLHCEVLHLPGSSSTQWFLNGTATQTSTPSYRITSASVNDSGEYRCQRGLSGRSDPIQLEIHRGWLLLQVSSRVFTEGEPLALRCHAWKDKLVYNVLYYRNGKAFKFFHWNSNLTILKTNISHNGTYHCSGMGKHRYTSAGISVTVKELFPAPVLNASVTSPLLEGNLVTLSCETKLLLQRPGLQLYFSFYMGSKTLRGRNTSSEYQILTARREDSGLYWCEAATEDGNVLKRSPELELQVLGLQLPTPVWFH
row,Binder,Kd [nM]
1,B15,98
2,B16,10
3,B17,20
4,B18,95
5,B19,42

# Molecular target: T2, FcγRIIa H type extracellular domain …
# Assay: SPR, antibody captured, FcgR analyte
row,Binder,Kd [nM]
1,B20,1300
2,B21,4300
3,B22,5600
4,B23,4600
5,B24,8300
6,B25,3000
7,B26,5800
8,B27,2800
9,B28,2600
10,B29,5000
11,B30,4700

# Molecular target: T3, FcγRIIb extracellular domain with …
# Assay: SPR, antibody captured, FcgR analyte
row,Binder,Kd [nM]
1,B20,3
2,B21,3.5
3,B22,8.4
4,B23,5.7
5,B24,16
6,B25,5.3
7,B26,8.4
8,B27,6.4
9,B28,4.1
10,B29,7.6
11,B30,5.5

# Molecular target: T4, FcγRIIa R type extracellular domain …
# Assay: SPR, antibody captured, FcgR analyte
row,Binder,Kd [nM]
1,B20,79
2,B21,180
3,B22,330
4,B23,210
5,B24,460
6,B25,200
7,B26,300
8,B27,250
9,B28,120
10,B29,340
11,B30,230

# Molecular target: T6, FcγRIa extracellular domain with C-terminal His tag (human, UniProt P12314 16-292)
# T6 construct: also called FcgRIa; CD64; not shown: His tag at the C terminus
# Assay: SPR, antibody captured, FcgR analyte
# T6 sequence (P12314 16-292): as above
row,Binder,Kd [nM]
1,B20,8.9
2,B21,6
3,B22,64
4,B23,96
5,B24,12
6,B25,55
7,B26,43
8,B27,32
9,B28,7.7
10,B29,25
11,B30,2.4

# Molecular target: T3, FcγRIIb extracellular domain with …
# Assay: SPR; KD of IL6R-B3/IL6R-L divided by KD of variant
row,Binder,Relative FcgRIIb-binding Activity
1,B20,1040
2,B21,888
3,B22,368
4,B23,539
5,B24,196
6,B25,585
7,B26,369
8,B27,481
9,B28,754
10,B29,405
11,B30,563

# Molecular target: T4, FcγRIIa R type extracellular domain …
# Assay: SPR; KD of IL6R-B3/IL6R-L divided by KD of variant
row,Binder,Relative FcgRIIaR-binding Activity
1,B20,13.7
2,B21,6.1
3,B22,3.3
4,B23,5.1
5,B24,2.4
6,B25,5.3
7,B26,3.6
8,B27,4.4
9,B28,9
10,B29,3.2
11,B30,4.7
